Molecular target: T1, IE2 (IE86) MBP fusion (Human cytomegalovirus, UniProt P19893 P19893:1-580)
T1 sequence: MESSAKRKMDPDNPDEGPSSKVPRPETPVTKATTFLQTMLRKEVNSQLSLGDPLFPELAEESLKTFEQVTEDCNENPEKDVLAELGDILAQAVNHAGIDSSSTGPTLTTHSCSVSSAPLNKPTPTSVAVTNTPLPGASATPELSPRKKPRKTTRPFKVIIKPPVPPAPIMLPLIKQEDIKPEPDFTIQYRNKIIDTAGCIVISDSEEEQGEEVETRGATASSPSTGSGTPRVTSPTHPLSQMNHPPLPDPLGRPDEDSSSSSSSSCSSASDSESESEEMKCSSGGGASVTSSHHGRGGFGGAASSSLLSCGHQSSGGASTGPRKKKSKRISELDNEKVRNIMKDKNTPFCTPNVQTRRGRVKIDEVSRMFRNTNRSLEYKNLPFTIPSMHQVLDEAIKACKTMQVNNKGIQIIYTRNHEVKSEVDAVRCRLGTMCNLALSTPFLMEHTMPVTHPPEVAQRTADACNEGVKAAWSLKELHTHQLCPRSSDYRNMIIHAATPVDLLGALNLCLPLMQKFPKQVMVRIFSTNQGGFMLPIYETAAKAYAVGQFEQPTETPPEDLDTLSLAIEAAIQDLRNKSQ
Assay: EMSA; IE2-CRS EMSA in presence of various amounts of Hoechst 33258 (BB33258); exact probe sequence not stated, CRS core given
Conditions: tags: MBP fusion, expressed in E. coli BL21, amylose column

B1: hCMV CRS (IE2 binding site) (dsDNA)
DNA 1: TCGTTTAGTGAACCG
DNA 2: CGGTTCACTAAACGA
Q: Does B1 bind?
A: Result: binds

From patent US20170360778, “Methods for Treating a Cytomegalovirus Infection” (The J. David Gladstone Institutes, published 2017)
